Patent publication US20080085859A1, “Drug Promoting Ceramide Transport, Base Sequence for Producing the Drug, Method of Measuring Activity of Promoting Ceramide Release and Method of Measuring Activity of Promoting Intermembrane Ceramide Transfer” (JAPAN SCIENCE AND TECHNOLOGY AGENCY, priority 2003, published 2008)

Columns and labels:
[1] = releasing reaction assay with other lipids as substrate (specificity); assay type: biochemical; conditions: FIG. 15
Description: Hereinafter, the standard method will be described in detail, however, even if the described conditions are changed, a method of detecting ceramide release promotion activity having means for separating releasing ceramide by a centrifugation principally belongs to the present invention. The lipid membrane containing ceramide was prepared so that it contains 12.5 nCi (225 pmol) per sample of [palmitoyl-1-^14C]N-palmitoyl-D-ethyro-sphigosine (hereinafter, may be referred to as ^14C-ceramide) on the basis of the mixed lipid consisting of phosphatidylcholine and phosphatidylethanolamine derived from egg yolk at the ratio of 4:1 and its concentration becomes 2.5 mg/mL. This lipid membrane is required at the rate of 20 μL per one sample of the activity measurement. […]
hCERT protein or its recombinant protein described above as a protein sample to be targeted (under the standard conditions, the amount of protein corresponding to 450 picomoles, which is 2-fold molar equivalent amount of ceramide contained in the donating membrane was used) were messed up to 30 μL using the buffer 2 [50 mM Hepes-NaOH buffer (pH7.4) to which 100 mM NaCl and 0.5 mM EDTA have been added]. […] The activity for promoting ceramide release with hCERT was calculated by measuring the radioactive activity of ^14C in the supernatant fraction using a liquid scintillation counter. […]

[2] = tested on: LY-A2 cell; experiment: cell labeling using C5-DMB-Cer and fluorescence microscopy (ER to Golgi apparatus); assay type: cell-based, Chinese hamster; conditions: C5-DMB-Cer, traced at 33° C. 15 minutes, LY-A2/hCERT, FIG. 6
Description: The present inventors have already made it clear that the activity of ATP dependent transport from the endoplasmic reticulum of natural ceramide (hereinafter, also referred to as ER) to Golgi apparatus can be qualitatively evaluated from the analysis of reallocation from ER of C5-DMB-Cer which is a fluorescent ceramide analogue to Golgi apparatus (J. Cell Biol. 144,673-685, 1999). As described in detail, the cell was exposed to C5-DMB-Cer at 4° C. for 30 minutes for the purpose of performing the pulse labeling of a variety of organelle membranes within a cell containing ER, after washing, it was traced at 33° C. for 15 minutes by a fluorescene microscopy observation method. A method of performing cell labeling using C5-DMB-Cer and a method of performing an observation by a fluorescence microscopy were carried out by a method of Yasuda et al (J. Biol. Chem. 276, 43994-44002, 2001) and a method of Fukasawa et al (J. Cell Biol. 144, 673-685, 1999). Specifically, after CHO-K1 cell, LY-A2 cell and LY-A2/hCERT cell grown on a coverslip made of glass were treated at 4° C. for 30 minutes in F12 medium containing 1 micro-M C5-DMB-Cer, it was washed three times in 1 mL of F12 medium. […] The sample was observed under the fluorescence microscopy immediately after it has been fixed and photographed with a digital CCD camera.

[3] = tested on: LY-A2 cell; experiment: metabolism labeling of lipid using [14C] serine and [14C] choline; assay type: cell-based, Chinese hamster; conditions: LY-A2/hCERT cell
Description: CHO-K1 cell, LY-A2 cell, and LY-A2/hCERT cell were inoculated at the cell density of 1.0×10^6 per culture dish having the 60-mm diameter, and cultured at 33° C. overnight. Subsequently, it was exchanged with […] of Nutridoma medium, after [^14C] serine (0.75 μCi) or [^14C] choline (1.0 μCi) have been added, in the case where [^14C] serine is added, it was cultured for 2 hours, and in the case where [^14C] choline is added, it was cultured at 33° C. for 5 hours. However, in the case where the influence on (1R, 3R) HPA-12 is analyzed, after it was pretreated at […] for 15 minutes in 1.5 mL of Nutridoma medium to which 1 μM of (1R,3R) HPA-12 has been added (in control experiment, dimethylsulfoxide used for dissolving a drug was added at the concentration corresponding to 0.01% of the final concentration), [^14C] serine was added, and cultured at 33° C. for 2 hours. After the cell was washed twice in 2 mL of cooled PBS, dissolved in 900 μL of sodium dodecyl sulfate (SDS), then, 800 μL and 20 μL of dissolved matter were used for determining lipid extraction and protein concentration. For the purpose of analyzing lipid labeled with [^14C] serine, the lipid was separated by TLC by making acetic methyl/n-propanol/chloroform/methanol/0.25% KCl (25:25:25 10:9, volume ratio) development solvent. The radioactive lipid separated on the plate was detected and analyzed by an image analyzer.

B1: hCERT protein: human CERT protein having an amino acid sequence of SEQ ID NO:1 (protein)
chain: MSDNQSWNSSGSEEDPETESGPPVERCGVLSKWTNYIHGWQDRWVVLKNNALSYYKSEDETEYGCRGSICLSKAVITPHDFDECRFDISVNDSVWYLRAQDPDHRQQWIDAIEQHKTESGYGSESSLRRHGSMVSLVSGASGYSATSTSSFKKGHSLREKLAEMETFRDILCRQVDTLQKYFDACADAVSKDELQRDKVVEDDEDDFPTTRSDGDFLHSTNGNKEKLFPHVTPKGINGIDFKGEAITFKATTAGILATLSHCIELMVKREDSWQKRLDKETEKKRRTEEAYKNAMTELKKKSHFGGPDYEEGPNSLINEEEFFDAVEAALDRQDKIEEQSQSEKVRLHWPTSLPSGDAFSSVGTHRFVQKVEEMVQNHMTYSLQDVGGDANWQLVVEEGEMKVYRREVEENGIVLDPLKATHAVKGVTGHEVCNYFWNVDVRNDWETTIENFHVVETLADNAIIIYQTHKRVWPASQRDVLYLSVIRKIPALTENDPETWIVCNFSVDHDSAPLNNRCVRAKINVAMICQTLVSPPEGNQEISRDNILCKITYVANVNPGGWAPASVLRAVAKREYPKFLKRFTSYVQEKTAGKPILF
modifications: HeLa cell
diacylglycerol releasing promotion, of the activity with respect to ceramide [1]: about 5%
releasing reaction with respect to diacylglycerol, cholesterol, phosphatidylcholine, sphingomyelin, sphingosine ([1]; substrate changed from ceramide to other lipids): did not indicate a significant releasing reaction
accumulation of DMB fluorescence to Golgi apparatus region [2]: accumulation comparable to CHO-K1 cell
PC synthesizing rate ([3]; radioactive choline, FIG. 4(B)): at the wild type level
SM biosynthesizing rate ([3]; radioactive choline, FIG. 4(B)): recovered to the wild type level
SM biosynthesis speed ([3]; radioactive serine, FIG. 4(A)): recovered to the wild type level
